In the supplement of paper PMC10567573:

B1: FADS1 (parent)
chain: LNFQIEHHLFPTMPRHNYHKVAPL

Variants of: B1
Experiment: protein stability index of a GFP-peptide fusion (GPS, HEK-293T) (PSI 1-6); higher = more stable
Conditions: c terminus: a fixed tail appended
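Also: lentivirally expressed fusions sorted by FACS into six bins by GFP to DsRed ratio, PSI derived from sequencing read proportions per bin multiplied by bin number.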

Variant	protein stability index
LNFHIEHHLFPTMPRHNYHKVAPL [Q4H]	2.67
LNFRIEHHLFPTMPRHNYHKVAPL [Q4R]	1.6
LNFAIEHHLFPTMPRHNYHKVAPL [Q4A]	1.44
LNFIIEHHLFPTMPRHNYHKVAPL [Q4I]	3.5
LNFYIEHHLFPTMPRHNYHKVAPL [Q4Y]	3.01
LNFFIEHHLFPTMPRHNYHKVAPL [Q4F]	2.52
LNFKIEHHLFPTMPRHNYHKVAPL [Q4K]	1.92
LNFSIEHHLFPTMPRHNYHKVAPL [Q4S]	1.3
LNFCIEHHLFPTMPRHNYHKVAPL [Q4C]	1.86
LNFNIEHHLFPTMPRHNYHKVAPL [Q4N]	2.22
LNFTIEHHLFPTMPRHNYHKVAPL [Q4T]	2.74
LNFDIEHHLFPTMPRHNYHKVAPL [Q4D]	1.66
LNFVIEHHLFPTMPRHNYHKVAPL [Q4V]	3.42
LNFPIEHHLFPTMPRHNYHKVAPL [Q4P]	1.24
LNFEIEHHLFPTMPRHNYHKVAPL [Q4E]	2.25
LNFGIEHHLFPTMPRHNYHKVAPL [Q4G]	2.08
LNFLIEHHLFPTMPRHNYHKVAPL [Q4L]	3.1
LNFQIEHHLFPTMCRHNYHKVAPL [P14C]	3.64
LNFQIEHHLFPTMERHNYHKVAPL [P14E]	2.13
LNFQIEHHLFPTMDRHNYHKVAPL [P14D]	2.52
LNFQIEHHLFPTMARHNYHKVAPL [P14A]	2.64
LNFQIEHHLFPTMFRHNYHKVAPL [P14F]	2.39
LNFQIEHHLFCTMPRHNYHKVAPL [P11C]	2.3
LNFQIEHHLFTTMPRHNYHKVAPL [P11T]	2.24

Variant	protein stability index
LNFQIEHHLFFTMPRHNYHKVAPL [P11F]	2.77
LNFQIEHHLFLTMPRHNYHKVAPL [P11L]	2.53
LNFQIEHHLFQTMPRHNYHKVAPL [P11Q]	2.73
LNFQIEHHLFKTMPRHNYHKVAPL [P11K]	2.46
LNFQIEHHLFITMPRHNYHKVAPL [P11I]	2.19
LNFQIEHHLFVTMPRHNYHKVAPL [P11V]	2.17
LNFQIEHHLFNTMPRHNYHKVAPL [P11N]	2.27
LNFQIEHHLFATMPRHNYHKVAPL [P11A]	2.35
LNFQIEHHLFRTMPRHNYHKVAPL [P11R]	1.81
LNFQIEHHLFWTMPRHNYHKVAPL [P11W]	3.17
LNFQIEHHLFGTMPRHNYHKVAPL [P11G]	1.9
LNFQIEHHLFYTMPRHNYHKVAPL [P11Y]	2.96
LNFQIEHHLFDTMPRHNYHKVAPL [P11D]	3.83
LNFQIEHHLFHTMPRHNYHKVAPL [P11H]	3.14
LNFQIEHHLFETMPRHNYHKVAPL [P11E]	2.56
LNFQIEHHLFSTMPRHNYHKVAPL [P11S]	2
LNFQHEHHLFPTMPRHNYHKVAPL [I5H]	1.83
LNFQCEHHLFPTMPRHNYHKVAPL [I5C]	2.33
LNFQEEHHLFPTMPRHNYHKVAPL [I5E]	2.1
LNFQQEHHLFPTMPRHNYHKVAPL [I5Q]	1.83
LNFQREHHLFPTMPRHNYHKVAPL [I5R]	2.27
LNFQMEHHLFPTMPRHNYHKVAPL [I5M]	1.63
LNFQNEHHLFPTMPRHNYHKVAPL [I5N]	2.52
LNFQYEHHLFPTMPRHNYHKVAPL [I5Y]	2.57

Variant	protein stability index
LNFQAEHHLFPTMPRHNYHKVAPL [I5A]	1.83
LNFQPEHHLFPTMPRHNYHKVAPL [I5P]	2.14
LNFQGEHHLFPTMPRHNYHKVAPL [I5G]	2.01
LNFQTEHHLFPTMPRHNYHKVAPL [I5T]	1.65
LNFQLEHHLFPTMPRHNYHKVAPL [I5L]	2.35
LNFQVEHHLFPTMPRHNYHKVAPL [I5V]	2.73
LNFQKEHHLFPTMPRHNYHKVAPL [I5K]	2.06
LNFQFEHHLFPTMPRHNYHKVAPL [I5F]	2.87
LNFQDEHHLFPTMPRHNYHKVAPL [I5D]	2.4
LNFQWEHHLFPTMPRHNYHKVAPL [I5W]	1.43
LNFQSEHHLFPTMPRHNYHKVAPL [I5S]	2.18
LNFQIEHHLFPTEPRHNYHKVAPL [M13E]	1.35
LNFQIEHHLFPTGPRHNYHKVAPL [M13G]	2.13
LNFQIEHHLFPTDPRHNYHKVAPL [M13D]	1.82
LNFQIEHHLFPTIPRHNYHKVAPL [M13I]	2.35
LNFQIEHHLFPTVPRHNYHKVAPL [M13V]	2.6
LNFQIEHHLFPTYPRHNYHKVAPL [M13Y]	2.83
LNFQIEHHLFPTHPRHNYHKVAPL [M13H]	2.04
LNFQIEHHLFPTKPRHNYHKVAPL [M13K]	1.75
LNFQIEHHLFPTSPRHNYHKVAPL [M13S]	2.59
LNFQIEHHLFPTCPRHNYHKVAPL [M13C]	1.75
LNFQIEHHLFPTRPRHNYHKVAPL [M13R]	1.4
LNFQIEHHLFPTNPRHNYHKVAPL [M13N]	1.91
LNFQIEHHLFPTQPRHNYHKVAPL [M13Q]	1.15

Variant	protein stability index
LNFQIEHHLFPTLPRHNYHKVAPL [M13L]	1.62
LNFQIEHHLFPTAPRHNYHKVAPL [M13A]	2.02
LNFQIEHHLFPTFPRHNYHKVAPL [M13F]	1.97
LNFQIEHHLFPTWPRHNYHKVAPL [M13W]	2.66
LNFQIWHHLFPTMPRHNYHKVAPL [E6W]	2.57
LNFQISHHLFPTMPRHNYHKVAPL [E6S]	1.8
LNFQIYHHLFPTMPRHNYHKVAPL [E6Y]	2.06
LNFQINHHLFPTMPRHNYHKVAPL [E6N]	1.19
LNFQIFHHLFPTMPRHNYHKVAPL [E6F]	3.4
LNFQIDHHLFPTMPRHNYHKVAPL [E6D]	2.54
LNFQIRHHLFPTMPRHNYHKVAPL [E6R]	2.07
LNFQICHHLFPTMPRHNYHKVAPL [E6C]	2.65
LNFQIMHHLFPTMPRHNYHKVAPL [E6M]	2.24
LNFQIGHHLFPTMPRHNYHKVAPL [E6G]	1.77
LNFQILHHLFPTMPRHNYHKVAPL [E6L]	2.27
LNFQIVHHLFPTMPRHNYHKVAPL [E6V]	3.6
LNFQIQHHLFPTMPRHNYHKVAPL [E6Q]	2.38
LNFQIPHHLFPTMPRHNYHKVAPL [E6P]	2.11
LNFQIKHHLFPTMPRHNYHKVAPL [E6K]	2.21
LNFQIHHHLFPTMPRHNYHKVAPL [E6H]	2.31
LNFQIAHHLFPTMPRHNYHKVAPL [E6A]	2.54
LNFQIEHHGFPTMPRHNYHKVAPL [L9G]	2.83
LNFQIEHHAFPTMPRHNYHKVAPL [L9A]	1.39
LNFQIEHHQFPTMPRHNYHKVAPL [L9Q]	1.34

Variant	protein stability index
LNFQIEHHKFPTMPRHNYHKVAPL [L9K]	1.36
LNFQIEHHDFPTMPRHNYHKVAPL [L9D]	2.04
LNFQIEHHPFPTMPRHNYHKVAPL [L9P]	1.5
LNFQIEHHEFPTMPRHNYHKVAPL [L9E]	1.23
LNFQIEHHFFPTMPRHNYHKVAPL [L9F]	3.13
LNFQIEHHTFPTMPRHNYHKVAPL [L9T]	1.42
LNFQIEHHMFPTMPRHNYHKVAPL [L9M]	1.95
LNFQIEHHVFPTMPRHNYHKVAPL [L9V]	2.37
LNFQIEHHNFPTMPRHNYHKVAPL [L9N]	1.57
LNFQIEHHHFPTMPRHNYHKVAPL [L9H]	1.8
LNFQIEHHCFPTMPRHNYHKVAPL [L9C]	1.72
LNFQIEHHRFPTMPRHNYHKVAPL [L9R]	1.87
LNFQIEHHWFPTMPRHNYHKVAPL [L9W]	3.23
LNFQIEHHSFPTMPRHNYHKVAPL [L9S]	2.71
LNFQIEHHIFPTMPRHNYHKVAPL [L9I]	2.01
LNFQIEHHYFPTMPRHNYHKVAPL [L9Y]	2.1
LNVQIEHHLFPTMPRHNYHKVAPL [F3V]	1.96
LNTQIEHHLFPTMPRHNYHKVAPL [F3T]	2.4
LNYQIEHHLFPTMPRHNYHKVAPL [F3Y]	1.37
LNWQIEHHLFPTMPRHNYHKVAPL [F3W]	1.92
LNFQIEHMLFPTMPRHNYHKVAPL [H8M]	2.14
LNFQIEHDLFPTMPRHNYHKVAPL [H8D]	2.14
LNFQIEHFLFPTMPRHNYHKVAPL [H8F]	2.4
LNFQIEHLLFPTMPRHNYHKVAPL [H8L]	2.44

Variant	protein stability index
LNFQIEHNLFPTMPRHNYHKVAPL [H8N]	2.06
LNFQIEHWLFPTMPRHNYHKVAPL [H8W]	2.58
LNFQIEHQLFPTMPRHNYHKVAPL [H8Q]	2.35
LNFQIEHYLFPTMPRHNYHKVAPL [H8Y]	2.57
LNFQIEHELFPTMPRHNYHKVAPL [H8E]	3.1
LNFQIEHPLFPTMPRHNYHKVAPL [H8P]	2.11
LNFQIEHKLFPTMPRHNYHKVAPL [H8K]	1.93
LNFQIEHALFPTMPRHNYHKVAPL [H8A]	1.87
LNFQIEHGLFPTMPRHNYHKVAPL [H8G]	1.58
LNFQIEHCLFPTMPRHNYHKVAPL [H8C]	2.41
LNFQIEHRLFPTMPRHNYHKVAPL [H8R]	1.74
LNFQIEHILFPTMPRHNYHKVAPL [H8I]	3.23
LNFQIEHVLFPTMPRHNYHKVAPL [H8V]	1.5
LNFQIEHTLFPTMPRHNYHKVAPL [H8T]	2.26
LNFQIEHSLFPTMPRHNYHKVAPL [H8S]	2.12
LNFQIEHHLFPAMPRHNYHKVAPL [T12A]	2.56
LNFQIEHHLFPWMPRHNYHKVAPL [T12W]	2.45
LNFQIEHHLFPYMPRHNYHKVAPL [T12Y]	2.5
LNFQIEHHLFPDMPRHNYHKVAPL [T12D]	1.98
LNFQIEHHLFPVMPRHNYHKVAPL [T12V]	2.29
LNFQIEHHLFPMMPRHNYHKVAPL [T12M]	1.73
LNFQIEHHLFPFMPRHNYHKVAPL [T12F]	2.79
LNFQIEHHLFPQMPRHNYHKVAPL [T12Q]	1.99
LNFQIEHHLFPCMPRHNYHKVAPL [T12C]	2.74

Variant	protein stability index
LNFQIEHHLFPSMPRHNYHKVAPL [T12S]	2.65
LNFQIEHHLFPNMPRHNYHKVAPL [T12N]	1.77
LNFQIEHHLFPEMPRHNYHKVAPL [T12E]	2.42
LNFQIEHHLFPPMPRHNYHKVAPL [T12P]	3.45
LNFQIEHHLFPLMPRHNYHKVAPL [T12L]	2.08
LNFQIEHHLFPGMPRHNYHKVAPL [T12G]	1.47
LNFQIEHHLFPHMPRHNYHKVAPL [T12H]	1.46
LNFQIEHHLFPIMPRHNYHKVAPL [T12I]	2.5
LNFQIEHHLFPKMPRHNYHKVAPL [T12K]	1.92
LNFQIEMHLFPTMPRHNYHKVAPL [H7M]	2.96
LNFQIESHLFPTMPRHNYHKVAPL [H7S]	1.81
LNFQIEKHLFPTMPRHNYHKVAPL [H7K]	2.75
LNFQIEAHLFPTMPRHNYHKVAPL [H7A]	2.31
LNFQIERHLFPTMPRHNYHKVAPL [H7R]	1.65
LNFQIECHLFPTMPRHNYHKVAPL [H7C]	3.38
LNFQIEDHLFPTMPRHNYHKVAPL [H7D]	1.93
LNFQIEGHLFPTMPRHNYHKVAPL [H7G]	1.55
LNFQIENHLFPTMPRHNYHKVAPL [H7N]	1.4
LNFQIEWHLFPTMPRHNYHKVAPL [H7W]	3.85
LNFQIEEHLFPTMPRHNYHKVAPL [H7E]	1.76
LNFQIETHLFPTMPRHNYHKVAPL [H7T]	2.82
LNFQIEPHLFPTMPRHNYHKVAPL [H7P]	2.19
LNFQIEQHLFPTMPRHNYHKVAPL [H7Q]	2.45
LNFQIEIHLFPTMPRHNYHKVAPL [H7I]	3.32

Variant	protein stability index
LNFQIELHLFPTMPRHNYHKVAPL [H7L]	3.47
LNFQIEHHLGPTMPRHNYHKVAPL [F10G]	2.73
LNFQIEHHLTPTMPRHNYHKVAPL [F10T]	1.39
LNFQIEHHLEPTMPRHNYHKVAPL [F10E]	1.24
LNFQIEHHLLPTMPRHNYHKVAPL [F10L]	1.55
LNFQIEHHLRPTMPRHNYHKVAPL [F10R]	1.87
LNFQIEHHLHPTMPRHNYHKVAPL [F10H]	3.04
LNFQIEHHLPPTMPRHNYHKVAPL [F10P]	1.24
LNFQIEHHLKPTMPRHNYHKVAPL [F10K]	2.14
LNFQIEHHLSPTMPRHNYHKVAPL [F10S]	1.66
LNFQIEHHLNPTMPRHNYHKVAPL [F10N]	2.28
LNFQIEHHLAPTMPRHNYHKVAPL [F10A]	2.17
LNFQIEHHLYPTMPRHNYHKVAPL [F10Y]	2.17
LNFQIEHHLWPTMPRHNYHKVAPL [F10W]	2
LNFQIEHHLDPTMPRHNYHKVAPL [F10D]	1.74
LNFQIEHHLVPTMPRHNYHKVAPL [F10V]	1.05
LNFQIEHHLIPTMPRHNYHKVAPL [F10I]	2.97
LNFQIEHHLCPTMPRHNYHKVAPL [F10C]	2.71
LNFQIEHHLMPTMPRHNYHKVAPL [F10M]	1.37
LNFQIEHHLQPTMPRHNYHKVAPL [F10Q]	1.92
